± gives the uncertainty stated by the source.
Experiment: abundance fitness (aPCA) (normalised: wild type 0, dead -1); higher = more abundant; growth selection in yeast, the domain comes from the species named
Conditions: Homo sapiens

Question: For “SAFB-like transcription modulator I49E, Q9NWH9”, which abundance fitness is on record?
Answer: -0.056 ± 0.071

Question: Which abundance fitness does the source give for “SAFB-like transcription modulator I49G, Q9NWH9” here?
Answer: -0.406 ± 0.049

Question: With “SAFB-like transcription modulator I49H, Q9NWH9” as the substance, how does the abundance fitness read?
Answer: -0.29 ± 0.1

Question: Which abundance fitness does the source give for “SAFB-like transcription modulator I49K, Q9NWH9” here?
Answer: -0.401 ± 0.078

Question: Which abundance fitness does the source give for “SAFB-like transcription modulator I49L, Q9NWH9” here?
Answer: -0.075 ± 0.045

Question: With “SAFB-like transcription modulator I49M, Q9NWH9” as the substance, how does the abundance fitness read?
Answer: 0.03 ± 0.057

Question: For “SAFB-like transcription modulator I49N, Q9NWH9”, which abundance fitness is on record?
Answer: -0.518 ± 0.073

Question: For “SAFB-like transcription modulator I49P, Q9NWH9”, which abundance fitness is on record?
Answer: -0.739 ± 0.067

Question: For “SAFB-like transcription modulator I49Q, Q9NWH9”, which abundance fitness is on record?
Answer: -0.068 ± 0.05

Question: With “SAFB-like transcription modulator I49R, Q9NWH9” as the substance, how does the abundance fitness read?
Answer: -0.148 ± 0.054

Question: For “SAFB-like transcription modulator I49S, Q9NWH9”, which abundance fitness is on record?
Answer: -0.168 ± 0.05

Question: For “SAFB-like transcription modulator I49T, Q9NWH9”, which abundance fitness is on record?
Answer: -0.223 ± 0.072

Question: Which abundance fitness does the source give for “SAFB-like transcription modulator I49V, Q9NWH9” here?
Answer: -0.079 ± 0.048

Question: With “SAFB-like transcription modulator I49W, Q9NWH9” as the substance, how does the abundance fitness read?
Answer: -0.449 ± 0.041

Question: Which abundance fitness does the source give for “SAFB-like transcription modulator I49Y, Q9NWH9” here?
Answer: -0.076 ± 0.089

Question: For “SAFB-like transcription modulator I56A, Q9NWH9”, which abundance fitness is on record?
Answer: -0.829 ± 0.1

Question: For “SAFB-like transcription modulator I56C, Q9NWH9”, which abundance fitness is on record?
Answer: -0.18 ± 0.083

Question: With “SAFB-like transcription modulator I56D, Q9NWH9” as the substance, how does the abundance fitness read?
Answer: -0.286 ± 0.3

Question: For “SAFB-like transcription modulator I56E, Q9NWH9”, which abundance fitness is on record?
Answer: -0.597 ± 0.089

Question: Which abundance fitness does the source give for “SAFB-like transcription modulator I56F, Q9NWH9” here?
Answer: -0.898 ± 0.21

Question: With “SAFB-like transcription modulator I56G, Q9NWH9” as the substance, how does the abundance fitness read?
Answer: -0.916 ± 0.072

Question: With “SAFB-like transcription modulator I56H, Q9NWH9” as the substance, how does the abundance fitness read?
Answer: -0.797 ± 0.19

Question: For “SAFB-like transcription modulator I56L, Q9NWH9”, which abundance fitness is on record?
Answer: 0.002 ± 0.068

Question: With “SAFB-like transcription modulator I56M, Q9NWH9” as the substance, how does the abundance fitness read?
Answer: -0.217 ± 0.05

Question: With “SAFB-like transcription modulator I56N, Q9NWH9” as the substance, how does the abundance fitness read?
Answer: -0.951 ± 0.25

Question: For “SAFB-like transcription modulator I56P, Q9NWH9”, which abundance fitness is on record?
Answer: -0.457 ± 0.05

Question: Which abundance fitness does the source give for “SAFB-like transcription modulator I56R, Q9NWH9” here?
Answer: -0.485 ± 0.07

Question: For “SAFB-like transcription modulator I56S, Q9NWH9”, which abundance fitness is on record?
Answer: -0.678 ± 0.082

Question: For “SAFB-like transcription modulator I56W, Q9NWH9”, which abundance fitness is on record?
Answer: -0.561 ± 0.069

Question: For “SAFB-like transcription modulator I56Y, Q9NWH9”, which abundance fitness is on record?
Answer: -0.419 ± 0.16

Question: For “SAFB-like transcription modulator I66A, Q9NWH9”, which abundance fitness is on record?
Answer: -0.552 ± 0.15

Question: With “SAFB-like transcription modulator I66C, Q9NWH9” as the substance, how does the abundance fitness read?
Answer: 0.196 ± 0.11

Question: For “SAFB-like transcription modulator I66E, Q9NWH9”, which abundance fitness is on record?
Answer: -0.272 ± 0.061

Question: With “SAFB-like transcription modulator I66F, Q9NWH9” as the substance, how does the abundance fitness read?
Answer: -0.396 ± 0.15

Question: For “SAFB-like transcription modulator I66G, Q9NWH9”, which abundance fitness is on record?
Answer: -0.517 ± 0.085

Question: With “SAFB-like transcription modulator I66H, Q9NWH9” as the substance, how does the abundance fitness read?
Answer: -0.226 ± 0.12

Question: Which abundance fitness does the source give for “SAFB-like transcription modulator I66L, Q9NWH9” here?
Answer: -0.268 ± 0.094

Question: For “SAFB-like transcription modulator I66M, Q9NWH9”, which abundance fitness is on record?
Answer: -0.316 ± 0.14

Question: Which abundance fitness does the source give for “SAFB-like transcription modulator I66N, Q9NWH9” here?
Answer: -0.432 ± 0.18

Question: Which abundance fitness does the source give for “SAFB-like transcription modulator I66P, Q9NWH9” here?
Answer: -0.274 ± 0.1

Question: For “SAFB-like transcription modulator I66Q, Q9NWH9”, which abundance fitness is on record?
Answer: -0.004 ± 0.11

Question: For “SAFB-like transcription modulator I66R, Q9NWH9”, which abundance fitness is on record?
Answer: -0.443 ± 0.061

Question: Which abundance fitness does the source give for “SAFB-like transcription modulator I66S, Q9NWH9” here?
Answer: -0.259 ± 0.083

Question: Which abundance fitness does the source give for “SAFB-like transcription modulator I66T, Q9NWH9” here?
Answer: -0.063 ± 0.12

Question: With “SAFB-like transcription modulator I66V, Q9NWH9” as the substance, how does the abundance fitness read?
Answer: -0.036 ± 0.084

Question: For “SAFB-like transcription modulator I66W, Q9NWH9”, which abundance fitness is on record?
Answer: -0.451 ± 0.18

Question: For “SAFB-like transcription modulator I66Y, Q9NWH9”, which abundance fitness is on record?
Answer: 0.007 ± 0.16

Question: With “SAFB-like transcription modulator K20A, Q9NWH9” as the substance, how does the abundance fitness read?
Answer: -0.284 ± 0.039

Question: For “SAFB-like transcription modulator K20C, Q9NWH9”, which abundance fitness is on record?
Answer: -0.115 ± 0.043

Question: With “SAFB-like transcription modulator K20D, Q9NWH9” as the substance, how does the abundance fitness read?
Answer: -0.413 ± 0.11

Question: Which abundance fitness does the source give for “SAFB-like transcription modulator K20E, Q9NWH9” here?
Answer: -0.354 ± 0.13

Question: Which abundance fitness does the source give for “SAFB-like transcription modulator K20F, Q9NWH9” here?
Answer: -0.366 ± 0.16

Question: For “SAFB-like transcription modulator K20G, Q9NWH9”, which abundance fitness is on record?
Answer: -0.638 ± 0.082

Question: With “SAFB-like transcription modulator K20H, Q9NWH9” as the substance, how does the abundance fitness read?
Answer: 0.005 ± 0.12

Question: With “SAFB-like transcription modulator K20I, Q9NWH9” as the substance, how does the abundance fitness read?
Answer: 0.049 ± 0.11

Question: With “SAFB-like transcription modulator K20L, Q9NWH9” as the substance, how does the abundance fitness read?
Answer: -0.21 ± 0.078

Question: With “SAFB-like transcription modulator K20M, Q9NWH9” as the substance, how does the abundance fitness read?
Answer: -0.035 ± 0.075

Question: Which abundance fitness does the source give for “SAFB-like transcription modulator K20N, Q9NWH9” here?
Answer: -0.333 ± 0.17

Question: For “SAFB-like transcription modulator K20Q, Q9NWH9”, which abundance fitness is on record?
Answer: -0.193 ± 0.091

Question: For “SAFB-like transcription modulator K20S, Q9NWH9”, which abundance fitness is on record?
Answer: -0.244 ± 0.036

Question: Which abundance fitness does the source give for “SAFB-like transcription modulator K20T, Q9NWH9” here?
Answer: -0.212 ± 0.053

Question: With “SAFB-like transcription modulator K20V, Q9NWH9” as the substance, how does the abundance fitness read?
Answer: -0.252 ± 0.072

Question: Which abundance fitness does the source give for “SAFB-like transcription modulator K20W, Q9NWH9” here?
Answer: -0.284 ± 0.095

Question: For “SAFB-like transcription modulator K20Y, Q9NWH9”, which abundance fitness is on record?
Answer: -0.454 ± 0.3

Question: With “SAFB-like transcription modulator K21A, Q9NWH9” as the substance, how does the abundance fitness read?
Answer: -0.182 ± 0.033

Question: For “SAFB-like transcription modulator K21C, Q9NWH9”, which abundance fitness is on record?
Answer: -0.203 ± 0.058

Question: Which abundance fitness does the source give for “SAFB-like transcription modulator K21E, Q9NWH9” here?
Answer: -0.195 ± 0.064

Question: With “SAFB-like transcription modulator K21F, Q9NWH9” as the substance, how does the abundance fitness read?
Answer: -0.349 ± 0.077

Question: With “SAFB-like transcription modulator K21G, Q9NWH9” as the substance, how does the abundance fitness read?
Answer: -0.265 ± 0.046

Question: For “SAFB-like transcription modulator K21H, Q9NWH9”, which abundance fitness is on record?
Answer: -0.33 ± 0.091

Question: Which abundance fitness does the source give for “SAFB-like transcription modulator K21L, Q9NWH9” here?
Answer: -0.324 ± 0.041

Question: Which abundance fitness does the source give for “SAFB-like transcription modulator K21N, Q9NWH9” here?
Answer: -0.491 ± 0.094

Question: Which abundance fitness does the source give for “SAFB-like transcription modulator K21P, Q9NWH9” here?
Answer: -0.312 ± 0.057

Question: For “SAFB-like transcription modulator K21Q, Q9NWH9”, which abundance fitness is on record?
Answer: -0.336 ± 0.052

Source: the Human Domainome abundance scans (Beltran et al. 2025)
